# Source: patent US20170129954A1 (PROTHENA BIOSCIENCES, published 2017)
# T1: human MCAM (antigen of the BLI kinetics in Example 7) (human, UniProt P43121 24-559, limits assumed)
# T1 chain: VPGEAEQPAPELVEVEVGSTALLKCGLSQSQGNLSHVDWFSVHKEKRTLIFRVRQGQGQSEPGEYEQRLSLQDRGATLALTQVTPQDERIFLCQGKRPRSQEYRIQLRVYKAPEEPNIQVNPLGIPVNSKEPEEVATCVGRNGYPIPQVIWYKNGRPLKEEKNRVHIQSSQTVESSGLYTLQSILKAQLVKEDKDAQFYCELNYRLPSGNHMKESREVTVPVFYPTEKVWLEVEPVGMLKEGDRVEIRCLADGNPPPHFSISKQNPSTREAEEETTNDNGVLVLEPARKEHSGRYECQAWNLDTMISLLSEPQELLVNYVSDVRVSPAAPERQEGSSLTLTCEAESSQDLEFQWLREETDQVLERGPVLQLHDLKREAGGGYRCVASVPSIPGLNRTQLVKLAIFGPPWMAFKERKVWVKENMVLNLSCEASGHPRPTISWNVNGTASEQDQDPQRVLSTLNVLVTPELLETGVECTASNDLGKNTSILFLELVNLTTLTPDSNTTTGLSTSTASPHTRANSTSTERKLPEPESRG
# T2: human MCAM domain 1 (amino acids 19-129) hFc (human, UniProt P43121 19-129)
# T2 construct: One of the various MCAMhFc domains captured on anti-human IgG Fc biosensors; also called MCAMhFc domain; not shown: human IgG Fc (hFc)
# T2 sequence: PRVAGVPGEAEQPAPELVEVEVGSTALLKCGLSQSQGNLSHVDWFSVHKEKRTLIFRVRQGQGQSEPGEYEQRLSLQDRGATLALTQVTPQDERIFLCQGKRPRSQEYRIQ
# T3: combination of human MCAM domains 1 and 2 (amino acids 19-242) hFc (human, UniProt P43121 19-242)
# T3 construct: One of the various MCAMhFc domains captured on anti-human IgG Fc biosensors; also called combination of domains 1 and 2; MCAMhFc domain; not shown: human IgG Fc (hFc)
# T3 sequence: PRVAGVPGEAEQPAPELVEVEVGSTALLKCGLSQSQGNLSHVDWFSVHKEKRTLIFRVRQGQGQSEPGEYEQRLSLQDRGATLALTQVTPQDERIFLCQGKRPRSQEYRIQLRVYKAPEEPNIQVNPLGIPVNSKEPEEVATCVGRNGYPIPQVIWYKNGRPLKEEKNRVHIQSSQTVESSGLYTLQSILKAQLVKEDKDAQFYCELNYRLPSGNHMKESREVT
# Assays:
# [1] = target: T1, human MCAM (antigen of the BLI kinetics …); assay: BLI, ForteBio Octet QK, apparent KD
# Text: Apparent ka, apparent kd and apparent KD are binding kinetic parameters obtained using ForteBio assay formats.
# [2] = target: T2, human MCAM domain 1 (amino acids …); assay: ForteBio BLI, MCAMhFc domains on anti-human IgG Fc biosensors
# Text: (§1) The following protocol was used: ForteBio anti-human IgG Fc biosensors were used to immobilize various MCAMhFc domains including full length MCAMhFc protein on to biosensor surface. […] After loading these samples into a black 96 well plate, the Octet Red was programmed as follows: 60 seconds for baseline #1; 180 seconds for loading various domains; 60 seconds for baseline #2; 180 seconds for association of antibody to domain; and 240 seconds for dissociation of antibody from domain.
# (§2) 1. MCAMhFc final concentration @ 5 ug/ml [0329] […] 3. ForteBio anti-human IgG Fc Capture (AHC) biosensors for kinetics experiments, cat #18-5060 [0331] 4. Block 96 well plate from Greiner Bio-one, cat #655209 [0332] 5. ForteBio Octet Red machine [0333] 6. Fresh tissue culture medium, DMEM with 20% FCS, was used as buffer for dilution The results from these analyses are as follows.
# [3] = target: T3, combination of human MCAM domains 1 and …; assay: as above
# Text: as §1, §2
binder,measurement,setting,value
"mouse anti-human MCAM monoclonal antibody clone 1749.1.3 (antibody, V domains shown, Mouse hybridoma monoclonal antibody; also called m1749) VH: DVKLVESGGDLVKPGGSLKLSCAASGFTFSSYIMSWVRQTPEKRLEWVATISSGGSSTYYPDSVKGRFTISRDNAKNTLYLQMSSLKSEDTAMYYCTRDDDYDVKVFAYWGQGTLVTVSA VL: DIVMSQSPSSLAVSAGEKVTMNCKSSRSLLNSRIRKNYLAWYQQKPGQSPKLLIYWASTRESGVPDRFTGSGSGTDFTLTISSVQAEDLAVYYCKQSYNLLTFGAGTKLELK",Kd,[1],0.286 nM
same,binding result,[2],no binding (tested: 5 ug/ml)
same,binding result,[3],no binding (tested: 5 ug/ml)
